Reference: the RNAGym collection of RNA variant scans (doi:10.1073/pnas.2313332121)

B1: TPR t1 (parent)
chain: GACCAAUCUGCCCUCAGAGCUCGAGAACAUCUUCGGAUGCAGAGGAGGCAGGCUUCGGUGGCGCGAUAGCGCCAACGUCCUCAACCUCCAAUGCAUCCCACCACAUGAUGAUGCCUGAAGAGCCUUGGUUUUUUG

Variants of: B1
Assay: polymerase ribozyme fitness, log enrichment relative to wild type (log ratio); higher = more active; in vitro selection for triplet polymerase activity
Method in brief: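 Mutant libraries of both subunits of a heterodimeric triplet polymerase ribozyme were PCR-built, transcribed, and selected once in triplicate, with frozen incubation at −7 °C and capture of gel-excised extended constructs on streptavidin beads before RT-PCR. Illumina sequencing of input and output libraries was filtered to genotypes with ≥10 input reads and ≥1 read per output. Fitness is the logarithm of genotype enrichment over wild-type enrichment, using inverse-variance-weighted replicate averages. The logarithm is base 2.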

With A37G C49G A111U U126G as the variant, how does the “polymerase ribozyme fitness (log ratio)” value read?
The value was -6.22.

With G36U G52U as the variant, how does the “polymerase ribozyme fitness (log ratio)” value read?
Its value is -2.2.

With A37C C70A as the variant, how does the “polymerase ribozyme fitness (log ratio)” value read?
Its value is -1.82.

Which “polymerase ribozyme fitness (log ratio)” value does the source give for G36C G58C C101G A111U here?
The value was -5.

With A37U C114A C124U as the variant, how does the “polymerase ribozyme fitness (log ratio)” value read?
Its value is -1.39.

With A37U G42C as the variant, how does the “polymerase ribozyme fitness (log ratio)” value read?
The value was -1.65.

For G36U G107C, which “polymerase ribozyme fitness (log ratio)” value is on record?
Its value is -5.19.

Which “polymerase ribozyme fitness (log ratio)” value does the source give for G36U U96A C97A G127A here?
Its value is -2.83.

For G36U C53U G63A C123G, which “polymerase ribozyme fitness (log ratio)” value is on record?
Its value is -0.478.

With A37C G45U G61C C123A as the variant, how does the “polymerase ribozyme fitness (log ratio)” value read?
Its value is -3.45.

Which “polymerase ribozyme fitness (log ratio)” value does the source give for G36U C49U A95U here?
Its value is -3.5.

For A37C C115U U130A U132G, which “polymerase ribozyme fitness (log ratio)” value is on record?
The value was -1.99.

With G36U A121C U125A G127U G128C as the variant, how does the “polymerase ribozyme fitness (log ratio)” value read?
The value was -0.954.

With G36U G52C U78G A95G as the variant, how does the “polymerase ribozyme fitness (log ratio)” value read?
The value was -2.15.

For A37C G45U C123A, which “polymerase ribozyme fitness (log ratio)” value is on record?
Its value is -0.836.

For G36U U87C C115U A119G U131C, which “polymerase ribozyme fitness (log ratio)” value is on record?
Its value is 1.61.

With A37G C72A A84G as the variant, how does the “polymerase ribozyme fitness (log ratio)” value read?
Its value is -1.24.

Which “polymerase ribozyme fitness (log ratio)” value does the source give for A37G U87C A95G A100U U130A here?
Its value is -3.04.

Which “polymerase ribozyme fitness (log ratio)” value does the source give for A37C G60A C76G here?
The value was -2.7.

For G36C G63U A83G U126G, which “polymerase ribozyme fitness (log ratio)” value is on record?
The value was -5.42.

For A37C A50C, which “polymerase ribozyme fitness (log ratio)” value is on record?
The value was -0.281.

With A37U A43U C73A U96C A111C U112A as the variant, how does the “polymerase ribozyme fitness (log ratio)” value read?
The value was -4.83.

For A37C C70A C72U G120U, which “polymerase ribozyme fitness (log ratio)” value is on record?
Its value is -1.56.

Which “polymerase ribozyme fitness (log ratio)” value does the source give for A37G C56G U96C here?
The value was -0.381.

For G36U G39C C124G, which “polymerase ribozyme fitness (log ratio)” value is on record?
Its value is -0.0867.

Which “polymerase ribozyme fitness (log ratio)” value does the source give for G36U C82A G113U here?
Its value is -3.08.

With G36C G51A C101U as the variant, how does the “polymerase ribozyme fitness (log ratio)” value read?
The value was -3.92.

With A37U G48U G57U U129C as the variant, how does the “polymerase ribozyme fitness (log ratio)” value read?
The value was -1.96.

With A37G C88G as the variant, how does the “polymerase ribozyme fitness (log ratio)” value read?
Its value is -2.83.

For A37G C89A, which “polymerase ribozyme fitness (log ratio)” value is on record?
Its value is -2.41.

For A37G G57C G58U G120U, which “polymerase ribozyme fitness (log ratio)” value is on record?
Its value is -0.432.

Which “polymerase ribozyme fitness (log ratio)” value does the source give for G36U A118G G128A here?
Its value is -3.98.

For A37G A83C U125A, which “polymerase ribozyme fitness (log ratio)” value is on record?
Its value is -0.963.

For G36U U55C G93A, which “polymerase ribozyme fitness (log ratio)” value is on record?
The value was -2.49.

With A37C G122U as the variant, how does the “polymerase ribozyme fitness (log ratio)” value read?
The value was -0.263.

With A37G A46G A83C as the variant, how does the “polymerase ribozyme fitness (log ratio)” value read?
The value was -2.03.

Which “polymerase ribozyme fitness (log ratio)” value does the source give for G36U A103U C114U here?
Its value is -5.26.

Which “polymerase ribozyme fitness (log ratio)” value does the source give for G36U G39U C70U A111G here?
Its value is -4.55.

Which “polymerase ribozyme fitness (log ratio)” value does the source give for G36U G42U C56G C70U U112C C124U here?
Its value is -2.29.

Which “polymerase ribozyme fitness (log ratio)” value does the source give for A37U C73G U130G here?
Its value is -1.38.

For G36U C70G, which “polymerase ribozyme fitness (log ratio)” value is on record?
Its value is -4.21.

With A37C G65C A121U as the variant, how does the “polymerase ribozyme fitness (log ratio)” value read?
The value was -5.06.

With A37U C40U U87C G135U as the variant, how does the “polymerase ribozyme fitness (log ratio)” value read?
Its value is -1.29.

For A37U A46U G47A C123G, which “polymerase ribozyme fitness (log ratio)” value is on record?
The value was -1.6.

For A37C G61U C104U U112C, which “polymerase ribozyme fitness (log ratio)” value is on record?
The value was 1.04.

For A37C C79A C94U, which “polymerase ribozyme fitness (log ratio)” value is on record?
Its value is -2.07.

With A37U A41C C64A U109A G128U as the variant, how does the “polymerase ribozyme fitness (log ratio)” value read?
The value was -5.77.

Which “polymerase ribozyme fitness (log ratio)” value does the source give for A37U A74U here?
Its value is -0.149.

Which “polymerase ribozyme fitness (log ratio)” value does the source give for A37C G52C G117A here?
The value was -2.76.

Which “polymerase ribozyme fitness (log ratio)” value does the source give for A37C C40U C53U G63U C123G U133C here?
The value was -0.381.

For A37C G63C A74C, which “polymerase ribozyme fitness (log ratio)” value is on record?
The value was -3.35.

Which “polymerase ribozyme fitness (log ratio)” value does the source give for A37U C56G C85U here?
Its value is -1.26.

With G36U C64U C123G as the variant, how does the “polymerase ribozyme fitness (log ratio)” value read?
Its value is 0.799.

With A37C G69A as the variant, how does the “polymerase ribozyme fitness (log ratio)” value read?
Its value is -3.26.

Which “polymerase ribozyme fitness (log ratio)” value does the source give for G36U C72U U96G G120C here?
The value was -0.581.

With G36C U129A as the variant, how does the “polymerase ribozyme fitness (log ratio)” value read?
Its value is -2.27.

Which “polymerase ribozyme fitness (log ratio)” value does the source give for A37G A118U here?
The value was 0.234.

With G36U C88G A91U as the variant, how does the “polymerase ribozyme fitness (log ratio)” value read?
The value was -6.86.

Which “polymerase ribozyme fitness (log ratio)” value does the source give for A37C G69U U96G U129A here?
Its value is -0.113.

With A37G C64U C88U A121U as the variant, how does the “polymerase ribozyme fitness (log ratio)” value read?
Its value is -0.585.

With A37C G39A G61A U112A U116G U133A as the variant, how does the “polymerase ribozyme fitness (log ratio)” value read?
The value was -3.64.

With G36U G69A as the variant, how does the “polymerase ribozyme fitness (log ratio)” value read?
Its value is -4.06.

With G36U G60C A84C as the variant, how does the “polymerase ribozyme fitness (log ratio)” value read?
Its value is -1.87.

For A37U C86G C88U C104U U106A G113A C124G G127A, which “polymerase ribozyme fitness (log ratio)” value is on record?
Its value is -4.82.

With A37U C72A C98A C123G as the variant, how does the “polymerase ribozyme fitness (log ratio)” value read?
Its value is -5.43.

For A37C G52A G69U C114G C123U, which “polymerase ribozyme fitness (log ratio)” value is on record?
The value was -2.89.

For G36U C72A C85A U92A U112A U129A, which “polymerase ribozyme fitness (log ratio)” value is on record?
The value was -5.86.

With G36U A46U C72A C97U as the variant, how does the “polymerase ribozyme fitness (log ratio)” value read?
Its value is -1.58.

Which “polymerase ribozyme fitness (log ratio)” value does the source give for G36U U106G G120A here?
Its value is -1.89.

For A37U G44A G113C U130A, which “polymerase ribozyme fitness (log ratio)” value is on record?
Its value is -3.29.

Which “polymerase ribozyme fitness (log ratio)” value does the source give for G36U G61A U78A here?
The value was -0.679.

Which “polymerase ribozyme fitness (log ratio)” value does the source give for G36U G44A U112A here?
The value was -0.0288.

With A37G A95C as the variant, how does the “polymerase ribozyme fitness (log ratio)” value read?
The value was -1.66.

Which “polymerase ribozyme fitness (log ratio)” value does the source give for A37C A95U here?
Its value is -0.484.

With G36U A68G as the variant, how does the “polymerase ribozyme fitness (log ratio)” value read?
Its value is -3.62.

For A37C G93A, which “polymerase ribozyme fitness (log ratio)” value is on record?
The value was -0.971.

Which “polymerase ribozyme fitness (log ratio)” value does the source give for G36U G39C G69A C82A G120U here?
Its value is -5.69.

With A37U C56G C114A as the variant, how does the “polymerase ribozyme fitness (log ratio)” value read?
The value was -1.64.

With A37U C101A G120A as the variant, how does the “polymerase ribozyme fitness (log ratio)” value read?
Its value is -0.798.

For G36C G110A, which “polymerase ribozyme fitness (log ratio)” value is on record?
The value was -1.62.

With A37C C62G A83U C88U as the variant, how does the “polymerase ribozyme fitness (log ratio)” value read?
The value was -2.61.

For A37C G52U C80A, which “polymerase ribozyme fitness (log ratio)” value is on record?
Its value is -4.05.

For G36U U55G A83U G110A U130G, which “polymerase ribozyme fitness (log ratio)” value is on record?
The value was -5.37.

For A37G A43U G52A G57U C98U, which “polymerase ribozyme fitness (log ratio)” value is on record?
The value was -5.9.
